Measured values from PMC10461225, “Creation of a Peptide Antagonist of the GFRAL–RET Receptor Complex for the Treatment of GDF15-Induced Malaise” (Journal of Medicinal Chemistry, 2023).
Like-named read-outs stand apart in the source and are kept apart here. Blank lines part the entries; values can stand above or below the molecule they belong to.

Columns and labels:
[1] = test system: Sprague–Dawley rats; details: rat, in vivo, ip, 6 mg/kg
Method: In this set of experiments, rats were treated with the highly emetogenic chemotherapeutic agent, cisplatin. Using this gold-standard preclinical model of CINV, we first determined the effects of a single systemic dose of GRASP administered shortly before cisplatin.
Adult male Sprague–Dawley rats (Charles River) weighing ∼250–270 g on arrival (N = 158) were housed under a 12 h:12 h light/dark cycle in a temperature- and humidity-controlled vivarium (23 ± 1 °C). Animals were fed ad libitum with a standard chow diet (Purina LabDiet 5001) with ad libitum access to tap water and kaolin pellets (Research Diets, K50001) for at least 5 days before the start of the experiment. All animals were naïve to experimental drugs and test treatments before the beginning of the experiment. Rats were habituated in single-hanging wire cages and received saline IP injections every day for 1 week before the onset of the experiment. […]
Using a similar paradigm, the impact of GRASP on cisplatin-induced nausea and anorexia was assessed. […] Food intake and kaolin consumption were measured at 3, 6, and 24 h postinjection.
Food intake and kaolin consumption were analyzed using repeated measures 2 × 3 ANOVAs, 2 × 2 ANOVAs, or one-way ANOVAs followed by Tukey’s post hoc tests. All data were expressed as means ± SEM. […] All data were analyzed using Prism 9 GraphPad Software (San Diego, California).

[2] = biological target: T1, recombinant human GFRAL (S19–E351) (Homo sapiens, UniProt Q6UXV0); assay: SPR, high-capacity carboxyl sensor with immobilised GFRAL, peptide or GDF15 as analyte; details: HEK293-derived recombinant human GDF15, TraceDrawer kinetic evaluation, read-out: binding affinity (KD) of GDF15 control to GFRAL
T1 construct: contained a truncated Ser19–Glu351 domain was used for all SPR experiments; His; purchased ACRO Biosystems GFA-H52H3; host or cells: HEK293 cells
T1 sequence (Q6UXV0 19-351): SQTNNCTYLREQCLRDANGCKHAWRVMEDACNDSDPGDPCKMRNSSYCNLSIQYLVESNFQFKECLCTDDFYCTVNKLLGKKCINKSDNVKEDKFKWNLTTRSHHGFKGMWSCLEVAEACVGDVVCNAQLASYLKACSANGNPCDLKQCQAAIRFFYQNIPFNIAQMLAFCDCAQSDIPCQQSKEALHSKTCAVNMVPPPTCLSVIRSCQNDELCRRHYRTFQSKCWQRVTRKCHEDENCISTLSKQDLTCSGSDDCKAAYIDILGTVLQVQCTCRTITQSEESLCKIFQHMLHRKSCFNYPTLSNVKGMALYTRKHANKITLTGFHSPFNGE
Method: Peptide binding to a segment of recombinant human GFRAL containing the complete known binding domain of GDF15 and the remaining extracellular domain (S19–E351) of the receptor as defined by UniProt (Q6UXV0) was evaluated by SPR (Figure 1). Initial screening aimed to confirm GFRAL immobilization and system functionality by evaluating the dose–response profile to a commercial formulation of HEK293 cell-derived recombinant human GDF15. […] For example, Yang et al.[6] reported a KD of ∼1 nM for the interaction between untagged GDF15 and purified human GFRAL extracellular domain (ECD) and binding of GDF15 to HEK293 transfectants expressing human GFRAL-EDC (Ser19–Glu351) and GDF15 via SPR and flow cytometry, respectively.
The binding of each peptide to the ECD of GFRAL was initially confirmed from the results of carboxyl-sensor SPR (SI, Figure S9) with bound GFRAL–ECD. A broad range of binding affinities (KD values ranging from […]) was observed. […] We hypothesized this may be due to obstruction of the binding site of GFRAL–ECD in its immobilized state. Thus, we opted for a different SPR approach in which we conjugated GRASP to biotin and immobilized the peptide to the sensor surface, this time via biotin–streptavidin affinity. Increasing concentrations of GFRAL–ECD were then evaluated as the mobile phase against the immobilized GRASP. […]

[3] = test system: Sprague–Dawley rats; assay: GDF15-induced anorexia and pica (kaolin intake) in rats; type: in vivo, rat
Excerpt: In initial experiments, we examined whether central administration of GRASP (i.e., directly into the fourth ventricle or fourth ICV) would counteract the effects of centrally delivered GDF15 in rats. Because the AP/NTS is located on the dorsal surface of the hindbrain at the caudal end of the fourth ventricle, this route of administration facilitates targeted and selective drug delivery near the sites of GFRAL expression. To assess the impact of these interventions, we measured pica behavior, i.e., the ingestion of non-nutritive substances such as kaolin,[29] as this represents an accurate and reliable proxy for malaise in rats and has been used to examine the effects of agents known to cause nausea in humans.[29]−[31]
To increase the translational impact of this study and more closely mimic a potential clinical scenario, we conducted a dose–response study in which both GRASP and GDF15 were administered systemically to rats via the intraperitoneal (IP) route.
All systemic treatments were delivered by intraperitoneal (IP) injection.
To evaluate the impact of GRASP on GDF15-induced anorexia and nausea (proxied by kaolin ingestion) in rats (n = 10, 400–450 g), GRASP (300 and 3000 pmol), or vehicle control was administered centrally immediately before intraventricular infusion of GDF15 (30 pmol). […]
All data were expressed as means ± SEM.

[4] = biological target: purified human GFRAL extracellular domain (ECD); details: untagged GDF15, purified human GFRAL ECD, SPR and flow cytometry, ref 6 (Yang et al.), read-out: reported KD of GDF15 for human GFRAL, cited from earlier work
Method: Peptide binding to a segment of recombinant human GFRAL containing the complete known binding domain of GDF15 and the remaining extracellular domain (S19–E351) of the receptor as defined by UniProt (Q6UXV0) was evaluated by SPR (Figure 1). Initial screening aimed to confirm GFRAL immobilization and system functionality by evaluating the dose–response profile to a commercial formulation of HEK293 cell-derived recombinant human GDF15. […] GRASPCy5 binding was evaluated by flow cytometry and compared with results from untransfected HEK293 cells.

[5] = biological target: T2, Recombinant His-tagged human GFRAL (Ser19–Glu351) (human, UniProt Q6UXV0 19-351); assay: SPR; GFRAL (S19-E351) immobilised by amine coupling (EDC/NHS) on a high-capacity carboxyl sensor (Nicoya OpenSPR); peptides or GDF15 as analyte; HBSS pH 7.4 running buffer without BSA; 20 uL/min; details: both partners purified
T2 construct: GDNF family receptor alpha-like (GFRAL), human, extracellular domain S19-E351 as defined by UniProt Q6UXV0; also called GFRAL–ECD; GFRAL (S19–E351); source: bought: ACRO Biosystems (GFA-H52H3), expressed in HEK293 cells
T2 sequence (looked up): T1 sequence (Q6UXV0 19-351)

Molecule: cis-diammineplatinum dichloride [cisplatin]
- kaolin consumption and anorexia induced by cisplatin [1]: leads to significant kaolin consumption and anorexia

- Kd [2]: 6 nM
- Kd [5]: 6.02 nM
B1: Recombinant human growth differentiation factor 15 (GDF15) (ligand, UniProt Q99988 195-308, looked up)
chain: ARARNGDHCPLGPGRCCRLHTVRASLEDLGWADWVLSPREVQVTMCIGACPSQFRAANMHAQIKTSLHRLKPDTVPAPCCVPASYNPMVLIQKTDTGVSLQTYDDLLAKDCHCI
notes: Growth differentiation factor 15, human, HEK293-derived commercial recombinant protein; commercial GDF15 is commonly the mature C-terminal cytokine (a disulfide-linked dimer), so the limits should be checked with the supplier; source: bought: Abcam (ab302451), expressed in HEK293 cells
- kaolin consumption and anorexia induced by GDF15, central ([3]; GDF15 30 pmol central administration, vs vehicle): induced significant kaolin consumption and anorexia
- kaolin consumption and anorexia induced by GDF15, systemic ([3]; GDF15 20 μg/kg IP): reliably induced kaolin consumption and modest, albeit statistically significant anorexia
- Kd ([4]; listed as native ligand): 1 nM
- Kd [4]: ~1 nM
